Data taken from patent publication US8008021B2, “N-terminal truncation of cardiac troponin subunits and their roles in cardiovascular disease” (Evanston Northwestern Healthcare, priority 2006, dated 2011).

T1: myofibril associated μ-calpain (Mus musculus, UniProt O35350)
T1 construct: To test whether endogenous calpain in the cardiac muscle contributes to TnT NH2-terminal modification; from tissue
T1 sequence (O35350 1-713): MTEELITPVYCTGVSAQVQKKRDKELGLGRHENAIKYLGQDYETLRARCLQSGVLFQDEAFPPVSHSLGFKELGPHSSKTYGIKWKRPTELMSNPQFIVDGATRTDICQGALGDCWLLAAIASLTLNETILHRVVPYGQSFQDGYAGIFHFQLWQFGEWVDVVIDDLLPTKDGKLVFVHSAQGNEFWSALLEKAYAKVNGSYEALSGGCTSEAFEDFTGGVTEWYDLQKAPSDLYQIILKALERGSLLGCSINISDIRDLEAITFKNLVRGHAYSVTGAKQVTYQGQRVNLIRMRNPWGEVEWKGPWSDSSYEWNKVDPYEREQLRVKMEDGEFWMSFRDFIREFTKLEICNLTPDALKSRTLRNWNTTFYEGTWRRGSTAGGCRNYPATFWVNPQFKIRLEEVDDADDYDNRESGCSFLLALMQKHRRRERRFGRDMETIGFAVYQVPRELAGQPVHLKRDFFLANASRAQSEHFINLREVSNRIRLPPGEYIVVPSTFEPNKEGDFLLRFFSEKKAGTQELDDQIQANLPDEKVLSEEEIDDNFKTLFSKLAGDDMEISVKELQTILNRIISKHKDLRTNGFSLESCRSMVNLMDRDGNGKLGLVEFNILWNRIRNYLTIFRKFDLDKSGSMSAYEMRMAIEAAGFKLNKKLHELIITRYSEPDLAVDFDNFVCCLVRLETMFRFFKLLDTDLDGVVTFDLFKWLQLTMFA
T1 sequence (O88456 1-268 partner): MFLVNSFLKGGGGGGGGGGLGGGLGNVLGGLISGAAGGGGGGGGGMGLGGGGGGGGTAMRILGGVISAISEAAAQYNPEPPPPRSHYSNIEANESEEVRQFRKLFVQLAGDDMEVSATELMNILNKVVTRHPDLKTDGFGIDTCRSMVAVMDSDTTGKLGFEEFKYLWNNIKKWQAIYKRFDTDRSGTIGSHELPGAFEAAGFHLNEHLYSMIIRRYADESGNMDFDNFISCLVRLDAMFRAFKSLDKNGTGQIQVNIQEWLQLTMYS

B1: μ-calpain: calcium activated cysteine protease (Calbiochem) used to treat cTnT, troponin complex and myofibrils (protein, UniProt P07384 2-714, looked up)
Calpain-1 catalytic subunit: SEEIITPVYCTGVSAQVQKQRARELGLGRHENAIKYLGQDYEQLRVRCLQSGTLFRDEAFPPVPQSLGYKDLGPNSSKTYGIKWKRPTELLSNPQFIVDGATRTDICQGALGDCWLLAAIASLTLNDTLLHRVVPHGQSFQNGYAGIFHFQLWQFGEWVDVVVDDLLPIKDGKLVFVHSAEGNEFWSALLEKAYAKVNGSYEALSGGSTSEGFEDFTGGVTEWYELRKAPSDLYQIILKALERGSLLGCSIDISSVLDMEAITFKKLVKGHAYSVTGAKQVNYRGQVVSLIRMRNPWGEVEWTGAWSDSSSEWNNVDPYERDQLRVKMEDGEFWMSFRDFMREFTRLEICNLTPDALKSRTIRKWNTTLYEGTWRRGSTAGGCRNYPATFWVNPQFKIRLDETDDPDDYGDRESGCSFVLALMQKHRRRERRFGRDMETIGFAVYEVPPELVGQPAVHLKRDFFLANASRARSEQFINLREVSTRFRLPPGEYVVVPSTFEPNKEGDFVLRFFSEKSAGTVELDDQIQANLPDEQVLSEEEIDENFKALFRQLAGEDMEISVKELRTILNRIISKHKDLRTKGFSLESCRSMVNLMDRDGNGKLGLVEFNILWNRIRNYLSIFRKFDLDKSGSMSAYEMRMAIESAGFKLNKKLYELIITRYSEPDLAVDFDNFVCCLVRLETMFRFFKTLDTDLDGVVTFDLFKWLQLTMFA

Tests used:
[1] = target: T1, myofibril associated μ-calpain; test: Calpain inhibition of cTnT-ND production in TRITON X-100 extracted ventricular muscle strips (Western blot densitometry); assay type: biochemical; settings: 100 μM hydrogen peroxide
Description: (§1) SDS-PAGE and Western blotting. Ventricular muscle tissues or myocytes were homogenized in Laemmli SDS-PAGE sample buffer containing 2% SDS, heated at 80° C. for 5 min, and clarified by centrifugation. Total protein extracts were resolved by 14% Laemmli gel with an acrylamide:bisacrylamide ratio of 180:1 (low cross linker) or by 15% Laemmli gel with an acrylamide:bisacrylamide ratio of 29:1 (high cross linker). The gels were stained with Coomassie Brilliant Blue R250 to reveal the resolved protein bands. Duplicate gels were electrically blotted to nitrocellulose membranes, as described previously (21). After blocking in Tris-buffered saline (TBS) containing 1% bovine serum albumin (BSA), the membrane was incubated with anti-TnT mAbs CT3, 2C8, or polyclonal antibody RATnT. The membranes were then washed with high stringency using TBS containing 0.5% TRITON® X-100 and 0.05% SDS, incubated with alkaline phosphatase-conjugated anti-mouse IgG or anti-rabbit IgG second antibodies (Sigma), washed again, and developed in 5-bromo-4-chloro-3-indolylphosphate/nitro blue tetrazolium substrate solution, as described previously (21).
TRITON® X-100 extraction of ventricular muscle strips. In an ice container, ventricular muscle was cut with a sharp razor blade into fine pieces approximately the size of isolated trabeculae. The muscle strips were washed in relaxing solution containing […], 2 mM MgCl2, 2 mM EGTA, 10 mM Tris, 0.5 mM DTT, 0.1 mM PMSF and 2 mM Na4P2O7. After centrifugation at 2,800×g at 4° C. for 15 min, the pellet was skinned in relaxing solution plus 0.5% (w/w) TRITON® X-100 at 4° C. with rotation for 10 min. After centrifugation at 14,000×g at 4° C. for 20 min, the pellet was suspended in relaxing solution without TRITON® X-100 and incubated at 37° C. with rotation. Samples were collected at a series of time points for SDS-PAGE and Western blotting to examine the modifications of cTnT and other myofibrillar proteins.
Calpain inhibition. To test whether endogenous calpain in the cardiac muscle contributes to TnT NH2-terminal modification, several different calpain inhibitors were applied to the TRITON® X-100 extraction procedure. […] TRITON® X-100 treatment of mouse ventricular muscle strips was carried out as above in the presence or absence of 100 μM hydrogen peroxide and the effect on cTnT modification was examined by Western blotting.
The effects of two cell membrane-permissible nonpeptide calpain inhibitors, PD 150606 and PD 151746 (Calbiochem), were also tested. […] PD 150606 and […] were separately added to the relaxing solution before TRITON® X-100 treatment and incubated with the minced ventricular muscle at 4° C. for 10 minutes to allow the inhibitor to penetrate cell membrane and bind to calpain. After TRITON® X-100 extraction, samples were collected for SDS-PAGE and Western blotting to examine the effect on cTnT modification.

[2] = target: T2, bovine cardiac TnI (Bos taurus, UniProt P08057); test: ELISA solid phase protein binding of immobilized cTnT to TnI; settings: for EC50: immobilized mouse cTnT, mean ± SD, read-out: concentration of TnI required to reach 50% of maximum binding; for change in binding to TnI on decrease of pH: pH from 7.0 to 6.2
T2 construct: Bovine cardiac TnI was purified from ventricular muscle as described previously (19); from tissue; host or cells: bovine ventricular muscle
Description: (§2) Protein binding assays. Enzyme-linked immunosorbant assay (ELISA) solid phase protein binding experiments (21) were performed to investigate the interactions of the NH2-terminal truncated cTnT with TnI and tropomyosin. Purified intact and NH2-terminal truncated mouse cTnT or BSA control were dissolved at 5 μg/mL in Buffer A (0.1 M KCl, 3 mM MgCl2, 20 mM PIPES, pH 7.5) and coated onto 96-well microtiter plates by incubation at 4° C. overnight. After washes with Buffer T (Buffer A containing 0.05% polyoxyethylene 20 (TWEEN®20)) at pH 7.5 to remove the unbound protein, the plates were blocked with Buffer T at pH 7.0 or 6.2 containing 1% BSA. The immobilized cTnT was incubated with serial dilutions of bovine cardiac TnI or rabbit α-tropomyosin in Buffer T (at the blocking pH) containing 0.1% BSA at room temperature for 2 hours. After one wash with Buffer T of the blocking pH and two washes with Buffer T at pH 7.0, the bound TnI or tropomyosin was quantified via incubation at pH 7.0 and room temperature for 1 hour with the anti-TnI mAb TnI-1 (46) or an anti-tropomyosin mAb CH1 (47), respectively. The plates were then processed by a standard ELISA procedure, including pH 7.0 Buffer T washes, horse radish peroxidase-conjugated anti-mouse immunoglobulin second antibody (Sigma) incubation, and H2O2/2,2′-azinobis-(3-ethylbenzthiazolinesulfonic acid) substrate reaction (21). A405 nm of each assay well was recorded at a series of time points by an automated microtiter plate reader (BioRad Benchmark). The A405 nm values in the linear course of the color development were used to plot the protein binding affinity curves. All experiments were done in triplicate.

[3] = target: T3, rabbit α-tropomyosin (Oryctolagus cuniculus, UniProt P58772); test: ELISA solid phase protein binding of immobilized cTnT to tropomyosin; settings: for EC50: immobilized mouse cTnT, mean ± SD, read-out: concentration of tropomyosin for 50% maximum binding; for change in binding to tropomyosin on decrease of pH: pH from 7.0 to 6.2
T3 construct: Rabbit α-tropomyosin was purified from ventricular muscle as described previously (44); from tissue; host or cells: rabbit ventricular muscle
Description: as §2

[4] = test system: cTnT in bovine cardiac myofibrils; test: μ-Calpain treatment of cardiac myofibrils (mAb CT3 Western blot densitometry); assay type: biochemical; settings: 20 U/ml μ-calpain
Description: as §1
Mu-Calpain treatment of cTnT. […] The samples were analyzed by SDS-PAGE and Western blotting as described above. […]

Molecule | cTnT-ND production reduced to ([1]; TRITON X-100 extracted exon 7-deleted transgenic mouse ventricular muscle strips) [%] | decrease in cTnT-ND72-291 ([1]; TRITON X-100 treated mouse ventricular muscle strips) | EC50 [2] [nM] | change in binding to TnI on decrease of pH [2] | EC50 [3] [nM] | change in binding to tropomyosin on decrease of pH [3] | maximum binding to TnI, compared with intact cTnT ([2]; FIG. 12A insert) | level of maximum binding to tropomyosin, compared with intact cTnT ([3]; FIG. 12B insert) | NH2-terminal truncated cTnT (cTnT ND) as share of total cTnT (truncated plus intact) ([4]; 0% at 0 U/ml) [%] | intact cTnT remaining ([4]; 100% at 0 U/ml) [%]
OO [hydrogen peroxide] | 65 | approximately 35% |  |  |  |  |  |  |  | 
intact cTnT: intact mouse cardiac troponin T (TnT4) expressed in E. coli |  |  | 15.3 ± 1.36 | did not result in significant change | 13.5 ± 1.38 | did not result in significant change |  |  |  | 
cTnT ND: NH2-terminal truncated mouse cardiac troponin T lacking amino acids 1-71, expressed in E. coli |  |  | 8.73 ± 1.15 | did not result in significant change | 9.73 ± 0.185 | did not result in significant change | No significant difference | not significantly changed |  | 
B1 |  |  |  |  |  |  |  |  | 98 | 1.5
